Experimental data from patent US20220378931A1 (Eli Lilly, published 2022).

Tests used:
[1] = molecular target: T1, human insulin receptor isoform A with C-terminal C9 tag (human, UniProt P06213 28-1382); assay: 125I-insulin competition SPA, hIR-A membranes, 0.1% HSA
T1 construct: membranes of stably transfected HEK293 cells; also called hIR-A; human IR-A
Method: (§1) The assays are performed with a SPA method using polyvinyltoluene (PVT) wheat germ agglutinin-coupled SPA beads (Perkin Elmer). Assay buffer contains 50 mM Tris-HCl, pH 7.5, 150 mM NaCl and either A) 0.1% w/v fatty-acid free BSA; B) 0.1% w/v fatty-acid free human serum albumin (HSA); C) 0.1% w/v rat serum albumin (RSA); or D) 0.001% Nonidet P-40 Substitute (NP-40, Roche Diagnostics). Ten-point concentration response curves using three-fold serial dilutions of test samples or controls are prepared in Assay Buffer using a Freedom/Evo robot (Tecan).
(§2) Percent specific inhibition (y-axis) is plotted versus the log concentration of compound (x-axis). […] Reported Ki values are shown as the geometric mean with the standard error (Delta Method Standard Error) and the number of independent replicate determinations used to calculate the geometric mean indicated by n.

[2] = molecular target: T1, human insulin receptor isoform A with …; assay: 125I-insulin competition SPA, hIR-A membranes, 0.001% NP-40
Method: as §1, §2

[3] = molecular target: T2, human insulin receptor isoform B with C-terminal C9 tag (human, UniProt P06213 28-1382); assay: 125I-insulin competition SPA, hIR-B membranes, 0.001% NP-40
T2 construct: membranes of stably transfected HEK293 cells; also called hIR-B; human IR-B
Method: as §1, §2

[4] = molecular target: T1, human insulin receptor isoform A with …; assay: 125I-insulin competition SPA, hIR-A membranes, 0.1% BSA
Method: as §1, §2

[5] = molecular target: T2, human insulin receptor isoform B with …; assay: 125I-insulin competition SPA, hIR-B membranes, 0.1% BSA
Method: as §1, §2

[6] = molecular target: T2, human insulin receptor isoform B with …; assay: 125I-insulin competition SPA, hIR-B membranes, 0.1% HSA
Method: as §1, §2

cow serum albumin = molecular target: T3, cow serum albumin (cow, UniProt P02769 25-607); assay: SPR (Biacore 8K), albumin immobilised, 25 C, steady-state affinity
T3 construct: bought protein, amine-coupled to a CM5 chip; also called Cow SA; Bovine SA
Method: (§3) Immobilization of serum albumin to a Series S Sensor Chip CM5 surface is performed according to the manufacturer's instructions (Amine Coupling Kit BR-1000-50). Briefly, carboxyl groups on the sensor chip surfaces (flow cell 1 and 2) are activated by injecting 70 μL of a mixture containing 75 mg/ml EDC and 11.5 mg/ml NHS at 10 μL/min. Human, cynomolgus monkey, mouse, rat, pig, dog, cow and rabbit serum albumin are diluted in 10 mM NaOAc pH 4.0 (BR-1003-49) at 1, 1, 3, 1, 1, 1, 1 and 1 μg/mL and then injected over the activated chip surfaces (flow cell 2, […]) at 10 μL/min for 90 sec (human, mouse, rat, pig and cow serum albumin are obtained from Sigma Aldrich (St. Louis, Mo.); cynomolgus monkey serum albumin is obtained from Holzel Diagnostika (Cologne, Germany); dog serum albumin is obtained from Molecular Innovations (Novi, Mich.); and rabbit serum albumin is obtained from Fitzgerald Industries International (Acton, Mass.)). […] Excess reactive groups on the surfaces (flow cell 1 and 2) are deactivated by injecting 70 μL of 1 M ETA HCl—NaOH pH 8.5 at 10 μL/min.
(§4) 150 μL of sample is individually injecting sequentially across the immobilized serum albumins surface and then dissociates for 600 sec at 50 μL/min flow rate at 25° C. The surface is regenerated by injecting 10 mM glycine-HCl pH 1.5 (BR-1003-54) at 50 μL/min for 100 sec. The resulting sensorgrams are analyzed using Biacore 8K Insight Evaluation Software (version 2.0.15.12933) 1:1 binding kinetics or steady-state affinity model fitting to calculate the binding kinetic parameter association rate (ka), dissociation rate (kd), and equilibrium dissociation constant (KD)

rabbit serum albumin = molecular target: T4, rabbit serum albumin (rabbit, UniProt P49065 25-608); assay: SPR (Biacore 8K), albumin immobilised, 25 C
T4 construct: bought protein, amine-coupled to a CM5 chip; also called Rabbit SA
Method: as §3, §4

pig serum albumin = molecular target: T5, pig serum albumin (pig, UniProt P08835 25-607); assay: SPR (Biacore 8K), albumin immobilised, 25 C, 1:1 kinetics
T5 construct: bought protein, amine-coupled to a CM5 chip; also called Pig SA
Method: as §3, §4

mouse serum albumin = molecular target: T6, mouse serum albumin (mouse, UniProt P07724 25-608); assay: as above
T6 construct: bought protein, amine-coupled to a CM5 chip; also called Mouse SA
Method: as §3, §4

dog serum albumin = molecular target: T7, dog serum albumin (dog, UniProt P49822 25-608); assay: as above
T7 construct: bought protein, amine-coupled to a CM5 chip; also called Dog SA
Method: as §3, §4

rat serum albumin = molecular target: T8, rat serum albumin (rat, UniProt P02770 25-608); assay: as above
T8 construct: bought protein, amine-coupled to a CM5 chip; also called Rat SA; RSA
Method: as §3, §4

human serum albumin = molecular target: T9, human serum albumin (human, UniProt P02768 25-609); assay: as above
T9 construct: bought protein, amine-coupled to a CM5 chip; also called Human SA; HSA
Method: as §3, §4

[7] = molecular target: T10, cynomolgus monkey serum albumin (cynomolgus monkey, UniProt A2V9Z4 25-608); assay: as above
T10 construct: bought protein, amine-coupled to a CM5 chip; also called Cyno SA
Method: as §3, §4

Binder	Ki [1] [nM]	Ki [2] [nM]	Ki [3] [nM]	Ki [4] [nM]	Ki [5] [nM]	Ki [6] [nM]	Kd (cow serum albumin) [nM]	binding result (rabbit serum albumin)	Kd (pig serum albumin) [nM]	koff (pig serum albumin) [s⁻¹]	kon (pig serum albumin) [M⁻¹ s⁻¹]	Kd (mouse serum albumin) [nM]	koff (mouse serum albumin) [s⁻¹]	kon (mouse serum albumin) [M⁻¹ s⁻¹]	Kd (dog serum albumin) [nM]	koff (dog serum albumin) [s⁻¹]	kon (dog serum albumin) [M⁻¹ s⁻¹]	Kd (rat serum albumin) [nM]	koff (rat serum albumin) [s⁻¹]	kon (rat serum albumin) [M⁻¹ s⁻¹]	other results
INS Analog 7 (other, single-chain insulin B-L2-A-L1-VHH fusion; also called Ex. 7) FVSQHLCGSHLVEALYLVCGERGFFYTPKTGGGGGGGIVEQCCTSICSLYQLENYCGPGPAPGPAPGPAPGPAPGPAPGPAPGPAPGPAEVQLLESGGGLVQPGGSLRLSCAASGRYIDETAVAWFRQAPGKEREFVAGIGGGVDITYYADSVKGRFTISRDNSKNTLYLQMNSLRPEDTAVYYCAARPGRPLITSKVADLYPYWGQGTLVTVSSPP	36.3	14.3	45.4	36.1	120	47.1															
INS Analog 18 (other, single-chain insulin B-L2-A-L1-VHH fusion; L1 is (PGPA)8; also called Ex. 18) FVSQHLCGSHLVEALRLVCGERGFHYTPKTGGGGGGGIVEQCCHSICSLYQLENYCGPGPAPGPAPGPAPGPAPGPAPGPAPGPAPGPAEVQLLESGGGLVQPGGSLRLSCAASGRYIDETAVAWFRQAPGKEREFVAGIGGGVDITYYADSVKGRFTISRDNSKNTLYLQMNSLRPEDTAVYYCAARPGRPLITSKVADLYPYWGQGTLVTVSSPP	518	89.5	134	204	299	239															
INS Analog 12 (other, single-chain insulin B-L2-A-L1-VHH fusion; also called Ex. 12) FVSQHLCGSHLVEALHLVCGERGFHYTPKTGGGGGGGIVEQCCHSICSLYQLENYCGPGPAPGPAPGPAPGPAPGPAPGPAPGPAPGPAEVQLLESGGGLVQPGGSLRLSCAASGRYIDETAVAWFRQAPGKEREFVAGIGGGVDITYYADSVKGRFTISRDNSKNTLYLQMNSLRPEDTAVYYCAARPGRPLITSKVADLYPYWGQGTLVTVSSPP	42.3	25	42.8	37.9	113	62.1															
INS Analog 13 (other, single-chain insulin B-L2-A-L1-VHH fusion; also called Ex. 13) FVSQHLCGSHLVEALHLVCGERGFHYTPKTGGGGGGGIVEQCCHSICSLEQLENYCGPGPAPGPAPGPAPGPAPGPAPGPAPGPAPGPAEVQLLESGGGLVQPGGSLRLSCAASGRYIDETAVAWFRQAPGKEREFVAGIGGGVDITYYADSVKGRFTISRDNSKNTLYLQMNSLRPEDTAVYYCAARPGRPLITSKVADLYPYWGQGTLVTVSSPP	34.6	23.1	39.2	60.3	131	89															
INS Analog 14 (other, single-chain insulin B-L2-A-L1-VHH fusion; also called Ex. 14) FVSQHLCGSHLVEALRLVCGERGFFYTPKTGGGGGGGIVEQCCTSICSLYQLENYCGPGPAPGPAPGPAPGPAPGPAPGPAPGPAPGPAEVQLLESGGGLVQPGGSLRLSCAASGRYIDETAVAWFRQAPGKEREFVAGIGGGVDITYYADSVKGRFTISRDNSKNTLYLQMNSLRPEDTAVYYCAARPGRPLITSKVADLYPYWGQGTLVTVSSPP	124	163	234	282	378	447															
INS Analog 11 (other, single-chain insulin B-L2-A-L1-VHH fusion; also called Ex. 11) FVSQHLCGSHLVEALHLVCGERGFFYTPKTGGGGGGGIVEQCCHSICSLEQLENYCGPGPAPGPAPGPAPGPAPGPAPGPAPGPAPGPAEVQLLESGGGLVQPGGSLRLSCAASGRYIDETAVAWFRQAPGKEREFVAGIGGGVDITYYADSVKGRFTISRDNSKNTLYLQMNSLRPEDTAVYYCAARPGRPLITSKVADLYPYWGQGTLVTVSSPP	31.8	20.5	81.1	36	164	95.4															
INS Analog 24 (other, single-chain insulin B-L2-A-L1-VHH fusion; also called Ex. 24) FVSQHLCGSHLVEALHLVCGERGFHYTPKTGGGGGGGIVEQCCHSICSLEQLENYCGPGPQPGPQPGPQPGPQPGPQPGPQPGPQPGPQEVQLLESGGGLVQPGGSLRLSCAASGRYIDETAVAWFRQAPGKEREFVAGIGGGVDITYYADSVKGRFTISRDNSKNTLYLQMNSLRPEDTAVYYCAARPGRPLITSKVADLYPYWGQGTLVTVSSPP		21.8		56.8			430	no binding (tested: up to 1000 nM)	100	0.011	100000	49	0.0073	150000	16	0.0024	150000	40	0.0057	140000	Kd (human serum albumin): 0.91 nM; koff (human serum albumin): 0.00012 s⁻¹; kon (human serum albumin): 140000 M⁻¹ s⁻¹; Kd [7]: 5.5 nM; koff [7]: 0.00075 s⁻¹; kon [7]: 130000 M⁻¹ s⁻¹
INS Analog 23 (other, single-chain insulin B-L2-A-L1-VHH fusion; also called Ex. 23) FVSQHLCGSHLVEALHLVCGERGFHYTPKTGGGGGGGIVEQCCHSICSLEQLENYCGGGGGQGGGGQGGGGQGGGGQGGGGQEVQLLESGGGLVQPGGSLRLSCAASGRYIDETAVAWFRQAPGKEREFVAGIGGGVDITYYADSVKGRFTISRDNSKNTLYLQMNSLRPEDTAVYYCAARPGRPLITSKVADLYPYWGQGTLVTVSSPP		18.9		55.1			590	no binding (tested: up to 1000 nM)	130	0.012	95000	76	0.0093	120000	23	0.0033	140000	53	0.0065	120000	Kd (human serum albumin): 0.73 nM; koff (human serum albumin): 9e-05 s⁻¹; kon (human serum albumin): 120000 M⁻¹ s⁻¹; Kd [7]: 6.8 nM; koff [7]: 0.00084 s⁻¹; kon [7]: 120000 M⁻¹ s⁻¹
INS Analog 27 (other, single-chain insulin B-L2-A-L1-VHH fusion; also called Ex. 27) FVSQHLCGSHLVEALRLVCGERGFFYTPKTGGGGGGGIVEQCCHSICSLYQLENYCGGGGGQGGGGQGGGGQGGGGQGGGGQEVQLLESGGGLVQPGGSLRLSCAASGRYIDETAVAWFRQAPGKEREFVAGIGGGVDITYYADSVKGRFTISRDNSKNTLYLQMNSLRPEDTAVYYCAARPGRPLITSKVADLYPYWGQGTLVTVSSPP		50.5		103			390	no binding (tested: up to 1000 nM)	90	0.01	120000	45	0.0079	170000	17	0.003	180000	32	0.0061	190000	Kd (human serum albumin): 0.75 nM; koff (human serum albumin): 0.00013 s⁻¹; kon (human serum albumin): 170000 M⁻¹ s⁻¹; Kd [7]: 4.7 nM; koff [7]: 0.00078 s⁻¹; kon [7]: 170000 M⁻¹ s⁻¹
